For orientation: Kd means the free concentration of one partner at which half of the binding sites on the other are occupied at equilibrium, for simple one-to-one binding. The term koff denotes a measure of how fast the partners let go of each other. In general, kon refers to a measure of how fast the partners come together.

Experimental findings from patent publication US20260167721A1 (ABLEXIS, published 2026) are described below.

For assay [1], the target named is T1, recombinant CD3 proteins (UniProt P07766 23-126).
T1 construct: elsewhere it uses human CD3 E/D and E/G heterodimers
As to the kind of experiment: Octet BLI, recombinant CD3; Full R^2 0.974. For orientation: In BLI a coated tip is dipped into the sample, and binding shifts an interference pattern.

The target in assay [2] is T1, recombinant CD3 proteins. As to the kind of experiment: Octet BLI, recombinant CD3; Full R^2 0.984.
Assay [3] concerns the target T1, recombinant CD3 proteins. As to the kind of experiment: Octet BLI, recombinant CD3; Full R^2 0.990.

T1 sequence (P07766 23-126): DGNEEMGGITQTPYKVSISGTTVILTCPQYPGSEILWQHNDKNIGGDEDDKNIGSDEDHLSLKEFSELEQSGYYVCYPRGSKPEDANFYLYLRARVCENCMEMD

B1: CD3 × CD33-BspAb100 (bispecific antibody)
chain 1: EVQLVESGGGLVKPGGSLRLSCAASGFTFSNYYMNWVRQAPGKCLERVSSISSSSNYIYYADSVKGRFTISRDNAKNSLYLQMNSLRAEDTAVYYCARDRRELPLDYWGQGTVVTVSSGGGGSGGGGSGGGGSGGGGSSYELTQPPSVSVSPGQTARITCSGDALPKKYAYWYQQKSGQAPVLVIYEDSKRPSGIPERFSGSSSGTMATLTISGAQVEDEADYYCYSTDSSGNHWVFGCGTKLTVLDKTHTCPPCPAPEFEGGPSVFLFPPKPKDTLMISRTPEVTCVVVDVSHEDPEVKFNWYVDGVEVHNAKTKPREEQYNSTYRVVSVLTVLHQDWLNGKEYKCKVSNKALPASIEKTISKAKGQPREPQVYTLPPCREEMTKNQVSLWCLVKGFYPSDIAVEWESNGQPENNYKTTPPVLDSDGSFFLYSKLTVDKSRWQQGNVFSCSVMHEALHNHYTQKSLSLSPGK
chain 2: EVQLVQSGAEVKKPGSSVKVSCKASGYTITDSNIHWVRQAPGQSLEWIGYIYPYNGGTDYNQKFKNRATLTVDNPTNTAYMELSSLRSEDTAFYYCVNGNPWLAYWGQGTLVTVSSASTKGPSVFPLAPSSKSTSGGTAALGCLVKDYFPEPVTVSWNSGALTSGVHTFPAVLQSSGLYSLSSVVTVPSSSLGTQTYICNVNHKPSNTKVDKRVEPKSCDKTHTCPPCPAPEFEGGPSVFLFPPKPKDTLMISRTPEVTCVVVDVSHEDPEVKFNWYVDGVEVHNAKTKPREEQYNSTYRVVSVLTVLHQDWLNGKEYKCKVSNKALPASIEKTISKAKGQPREPQVCTLPPSREEMTKNQVSLSCAVKGFYPSDIAVEWESNGQPENNYKTTPPVLDSDGSFFLVSKLTVDKSRWQQGNVFSCSVMHEALHNRFTQKSLSLSPGK
chain 3: DIQLTQSPSTLSASVGDRVTITCRASESLDNYGIRFLTWFQQKPGKAPKLLMYAASNQGSGVPSRFSGSGSGTEFTLTISSLQPDDFATYYCQQTKEVPWSFGQGTKVEVKRTVAAPSVFIFPPSDEQLKSGTASVVCLLNNFYPREAKVQWKVDNALQSGNSQESVTEQDSKDSTYSLSSTLTLSKADYEKHKVYACEVTHQGLSSPVTKSFNRGEC
Turning to B1, in the assay with recombinant CD3 proteins [1], the Kd was 235 nM, the off-rate constant (koff) was determined as 0.0831 s⁻¹ and the kon is 354000 M⁻¹ s⁻¹.

B2: CD3 × CD33-BspAb117 (bispecific antibody)
chain 1: NFMLTQPHSVSESPGKTVTISCTRSSGSIASNYVQWYQQRPGSSPTSVIYEDNQRPSGVPDRFSGSIDSSSNSASLTISGLKTEDEADYYCQSYDRSNRVFGCGTKLTVLGGGGSGGGGSGGGGSGGGGSEVQLVESGGGLVKPGGSLRLSCAASGLTFSTYSMNWVRQAPGKCLEWVSSISSSGSYVYYADSVKGRFTMSRDNAKNSLYLQMNSLRAEDTAVYYCARERRELLFDYWGQGTLVTVSSDKTHTCPPCPAPEFEGGPSVFLFPPKPKDTLMISRTPEVTCVVVDVSHEDPEVKFNWYVDGVEVHNAKTKPREEQYNSTYRVVSVLTVLHQDWLNGKEYKCKVSNKALPASIEKTISKAKGQPREPQVYTLPPCREEMTKNQVSLWCLVKGFYPSDIAVEWESNGQPENNYKTTPPVLDSDGSFFLYSKLTVDKSRWQQGNVFSCSVMHEALHNHYTQKSLSLSPGK
chain 2: B1 chain 2
chain 3: B1 chain 3
On to B2, for which, in the assay with recombinant CD3 proteins [2], the Kd is 16.6 nM, the koff came out at 0.00554 s⁻¹ and the kon amounted to 335000 M⁻¹ s⁻¹.

B3: CD3 × CD33-BspAb115 (bispecific antibody)
chain 1: NFMLTQPHSVSESPGKTVTISCTRTSGSIASNYVQWYQQRPGSSPTTVIYEDNQRPSGVPDRFSGSIDSSSNSASLTISGLKTEDEAAYYCQSYDRSNRVFGCGTKLTVLGGGGSGGGGSGGGGSGGGGSQVQLQESGPGLVKPSETLSLTCTVSGGSISSYYWSWIRQPAGKCLEWIGRIYTSGSTKYNPSLKSRVTMSVDTSKNQFSLKLISVTAADTAVYFCARERIRDLYFDYWGQGTLVTVSSDKTHTCPPCPAPEFEGGPSVFLFPPKPKDTLMISRTPEVTCVVVDVSHEDPEVKFNWYVDGVEVHNAKTKPREEQYNSTYRVVSVLTVLHQDWLNGKEYKCKVSNKALPASIEKTISKAKGQPREPQVYTLPPCREEMTKNQVSLWCLVKGFYPSDIAVEWESNGQPENNYKTTPPVLDSDGSFFLYSKLTVDKSRWQQGNVFSCSVMHEALHNHYTQKSLSLSPGK
chain 2: B1 chain 2
chain 3: B1 chain 3
Take B3: in the assay with recombinant CD3 proteins [3], the Kd was found to be 16.2 nM, the koff stood at 0.00402 s⁻¹ and the kon came to 249000 M⁻¹ s⁻¹.
